The values that follow come from publication PMC6529005, “FMRP - G-quadruplex mRNA - miR-125a interactions: Implications for miR-125a mediated translation regulation of PSD-95 mRNA”.

Data set [1] has as its target T1, FMRP S500D (UniProt Q06787 1-632, S500D). As to the kind of experiment: EMSA; 200 nM RNA, complete at 1:2; Kd estimated low nM; Fluorescence: 10 mM cacodylic acid pH 6.5, 150 mM KCl, 1 uM BSA, 200 nM RNA; EMSA: 0.5x TBE native gels at 4 C (5 mM KCl for PSD-95 RNAs), incubation at room te.
For data set [2], the target named is FMRP RGG peptide (UniProt Q06787). As to the kind of experiment: EMSA; 200 nM RNA, up to 1:2; Fluorescence: 10 mM cacodylic acid pH 6.5, 150 mM KCl, 1 uM BSA, 200 nM RNA; EMSA: 0.5x TBE native gels at 4 C (5 mM KCl for PSD-95 RNAs), incubation at room temperature 15-20 min; pull-down: RIPA (150 mM NaCl, 50 mM Tris pH 8.0), room temperature. A general note: Mobility shift assays separate free from complexed probe on a gel.

The target in data set [3] is T1, FMRP S500D. As to the kind of experiment: EMSA; 200 nM RNA, similar to miR-125a; Fluorescence: 10 mM cacodylic acid pH 6.5, 150 mM KCl, 1 uM BSA, 200 nM RNA; EMSA: 0.5x TBE native gels at 4 C (5 mM KCl for PSD-95 RNAs), incubation at room te.
In data set [4] the target is T1, FMRP S500D. In words: fluorescence titration (2AP); 150 mM KCl, 1 uM BSA; Fluorescence: 10 mM cacodylic acid pH 6.5, 150 mM KCl, 1 uM BSA, 200 nM RNA; EMSA: 0.5x TBE native gels at 4 C (5 mM KCl for PSD-95 RNAs), incubation at room te.
Data set [5] addresses FMRP RGG peptide (UniProt Q06787). In words: EMSA; 5 mM KCl; Fluorescence: 10 mM cacodylic acid pH 6.5, 150 mM KCl, 1 uM BSA, 200 nM RNA; EMSA: 0.5x TBE native gels at 4 C (5 mM KCl for PSD-95 RNAs), incubation at room temperature 15-20 min; pull-down: RIPA (150 mM NaCl, 50 mM Tris pH 8.0), room temperature.
Data set [6] deals with T1, FMRP S500D. As to the kind of experiment: EMSA; 200 nM RNA, up to 1:2; Fluorescence: 10 mM cacodylic acid pH 6.5, 150 mM KCl, 1 uM BSA, 200 nM RNA; EMSA: 0.5x TBE native gels at 4 C (5 mM KCl for PSD-95 RNAs), incubation at room te.

B1: miR-125a (ssRNA)
RNA: UCCCUGAGACCCUUUAACCUGUGA
B1: the binding result with FMRP S500D [1] was “binds”; with FMRP RGG peptide [2], “no binding”.

B2: miR-125a-Mut2 (ssRNA)
RNA: UCCCUGAGACCGUUUAACCUGUGA
Take B2: the binding result with FMRP S500D [3] was “binds”.

B3: PSD-95 Q11234 11-2AP (structured_RNA)
RNA: GGGAAAAGGGAGGGAUGGG
modifications: A11 replaced by 2-aminopurine
Usually Kd stands for the concentration at which binding is half-saturated. B3: binding with FMRP S500D [4] was put at a Kd of 66 nM.

B4: PSD-95 Q1 (structured_RNA)
RNA: GGGAAAAGGGAGGGAUGGGUCUAGGG
As for B4, the binding result with FMRP RGG peptide [5] (G-quadruplex, multiple conformations) is given as “binds”.

B5: miR-122 (ssRNA)
RNA: UGGAGUGUGACAAUGGUGUUUG
As for B5, the binding result with FMRP S500D [6] is “no binding”.

B6: PSD-95 Q2 (structured_RNA)
RNA: GGGAGGGAGGGUGGG
For the molecule B6, in the data set with FMRP RGG peptide [5] (G-quadruplex), the binding result was “binds”.

B7: PSD-95 Q1-Q2 (structured_RNA)
RNA: GGGAAAAGGGAGGGAUGGGUCUAGGGAGUGGGAAAUGCGGGAGGGAGGGUGGG
On to B7, for which the binding result with FMRP RGG peptide [5] (two G-quadruplexes) is recorded as “binds”.

B8: miR-125b (ssRNA)
RNA: UCCCUGAGACCCUAACUUGUGA
As to B8, the binding result with FMRP S500D [3] is given as “binds”.

B9: PSD-95 Q2 4-2AP (structured_RNA)
RNA: GGGAGGGAGGGUGGG
modifications: A4 replaced by 2-aminopurine
B9 yielded a dissociation constant Kd with FMRP S500D [4] of 100 nM.

B10: miR-196a-1 (ssRNA)
RNA: UAGGUAGUUUCAUGUUGUUGGG
In the case of B10, the binding result with FMRP S500D [6] is recorded as “binds”.
